Assay results as given in a protein production outcome set (Wang et al. 2014).

Assay: label from the status in PepcDB records

Sequence | protein production
GAPLKAVSAFAPPMKTQDFNLYTNEVHAKFDDYDLGMEYARQHNKPVMLDFTGYGCVNCRKMELAVWTDPKVSSIINNDYVLITLYVDNKTPLTEPVKIMENGTERTLRTVGDKWSYLQRVKFGANAQPFYVLIDNEGNPLNKSYAYDEDISKYINFLQTGLENYRKEK | not failed
GDDEIAMLGRYFNQMTRQLKGQRDTLLENTHQIERRRRLFDSVLSSVTSGVVGLDSQGKVTFVNRSAERLLDWSGDEQSLDLAVAVPEFVSLFESLVAAGQETVQAEIKVTRKGQLENLLVRMSTRRGEDDTLEGYVIAFDD | failed
GDGVWDWDISNGSIFFSSRCRQLLGLTAPEAIAGFQLWQTGIHPDERPTVQAELAGYLRQPEGSFVTEHRFRKGEEWIWLLGRGMVVSLDIQGRPLRMIGTYSDITERKEAEAELQLLNSHLEERVAARTAELKKAMQQISIAEKQAALARMVAGMAHELNTPIGNILLCSSQIQADVAAIAKADTDRLLSRKGLQSFLQKAAESCELLQRNSELAGDLIGRFKQIAVDQLDQP | failed
GDLAGSLDLGTGRIALYSIDVSGHGVASALMTARLAGLLSGLSTDGGVARSDGACRQCAGHDSWPPEILAARLNRMMIADLGVEQYFTMAYAEIDLRSGALALVQAGHPHPVVLRAGGRVELLGQGGLPVGLLPDATFERSETRLLPGDRLFLLSDGVTECPDLSGHELGEAGLVRLLAEHAGLGSEELMEALVWALHERMGGGDFRDDVSGVLFDY | failed
GEELLPDGVPEEVMESAQPVANEEIVAQLVSMGFSQLHCQKAAINTSNAGVEEAMNWLLSHMDDPDIDAPI | not failed
GEGTDAIQALIQAYFTAWNTNAPERFAEIFWPDGSWVNVVGMHWRGRDQIVFAHTAFLKTIFKDCKQELVTIEARTIAPGSALAVVTLIQDAYVTPDGRQMPRAHDRLTLLAVEREGVWRFIHGHNTIVNPDAANNDPVLRMKPA | not failed
GFAATALPVLQRVTDRTHEATILSVRDGNHHLTVNKVDGPKTFRVTSDPGHLGALHTTSVGKALVAFEEEVERKRLLEELPLDPLTEHSITDRDKFRAEIDQVRRQGYAVMDEENEIGMRAVAVPVLNSQGHAFASLAVAVPVFRLTMEELIAHVPTLQEAAAELAARLPQ | failed
GGLRLIPLDQVRYLQADEKYVVICHEQGEDLIEESLKSLEKEFSDRFVRIHRNCLIARAELTELRRCSDGQVQAVLRNVVTPLAVSRRCVPLLCDQLR | not failed
GGTPSPQLTSRQEIAVVPKVFDASTMFLEAQMASIQILEQENKKIGYVHIWSNAADPYQQELQNELIYGRLRNADGLILDLRDGWGGGDISYLNIFTAKQSPSVTHVQRNGRRYTYNYQWKKPVVMLVNEGSRSSKEILAFNFQQNQIGPVLGTKTTGAVVAGRPYIMQDGSLLYVAVADVFLNGNQRLEGKGVTPDINVPFSLEYAQGVDPQKQTAIETLLKAL | failed
GHMARTVNLKGNPVTLVGPELKVGDRAPEAVVVTKDLQEKIVGGAKDVVQVIITVPSLDTPVCETETKKFNEIMAGMEGVDVTVVSMDLPFAQKRFCESFNIQNVTVASDFRYRDMEKYGVLIGEGALKGILARAVFIIDKEGKVAYVQLVPEITEEPNYDEVVNKVKELI | not failed
GHMSEFVSIAARQEGAVGIIELARPDVLNALSRQMVAEIVAAVEAFDRNEKVRVIVLTGRGRAFAAGADIQEMAKDDPIRLEWLNQFADWDRLSIVKTPMIAAVNGLALGGGFELALSCDLIVASSAAEFGFPEVNLGVMPGAGGTQRLTKLIGPKRALEWLWTGARMSAKEAEQLGIVNRVVSPELLMEETMRLAGRLAEQPPLALRLIKEAVQKAVDYPLYEGMQFERKNFYLLFASEDQKEGMAAFLEKRKPRFQGK | not failed
GHMSPGERFLDWLKRLQGQKAWTAARAAFRRSLAFPPGAYPRAMPYVEPFLAKGDWRQEEREAHYLVAALYALKDGDHQVGRTLARALWEKAQGSASVEKRFLALLEADRDQIAFRLRQAVALVEGGIDFARLLDDLLRWFSPERHVQARWAREYYGAGASEEEKKKEVEA | not failed
GIKDSPVNKVEPNDTLEKVFVSVTKYPDEKRLKGLSKQLDWSVRKIQCWFRHRRNQDKP | not failed
GKKIKYDTPLSTLVIAPPGTGKTSAIIIPNLLSIPNSQVVIDVKGEICSLTAGYRQKKLLNQVFIFNPFGEDSNFHFNPFNLERMSKLGFAEKTAIVRQVGSTIFPKPKDEKDSHWRETAKTFFEFAAMHNIEKYGYTTLYEIYRFPKKDWTDELEDKYFDEKEKREELGEEVNTFRLLLRQIAENETLHDNIRDDARRFLGTPANEFGSVLSTFSTKMSIFGDLRVKELTDQNSFMPERLREDNITLYIKCLEKDIPSLSPIIRILLETIVKELMSRESTDPKERIYLELDEVMRFGELDFMIELPSISRSYNLPNIFAAQSYAQIRKHYSQEDLEIMLDTVAYQVVFRANRQQAAEDISKEVGDFTAHKKTTSSQDIKILQSYSTSEEAKRLVTAQDILNIPKDKVLILATGHKATPILAQANFYFKDRTERQKTKIKKE | failed
GKRSTMLLRAITPQDWDAILQIQEECYSQLDPEPLHVLQSKWHVSPQSCFVFEVNESVVGYCLAHPWTTNMPPALYEPITHLPKADTLYLHDIAISAKAQGLGAGSKALMRLKQLADRFNLGSLSLVAVQGADSYWRKMGFTPKAIDKCLGSYTDDAMYMIYKL | failed
GKTFPDVPADHWGIDSINYLVEKGAVKGNDKGMFEPGKELTRAEAATMMAQILNLPIDKDAKPSFADSQGQWYTPFIAAVEKAGVIKGTGNGFEPNGKIDRVSMASLLVEAYKLDTKVNGTPATKFKDLETLNWGKEKANILVELGISVGTGDQWEPKKTVTKAEAAQFIAKTDKQFGTE | not failed
GMINAHNHLPMIAFRGLGEEGISNRLFAYFFPLEAQKLSRELIYNATKLGAIDLAQSGVTTYADMYYHMDEMAKATKEVGLRAVLGETVIKFPVVDAKQPYGGIQYAKPFIEEYQNDPLITPAYAPHAVYTVSKEKLQEINQLSEDYDVPVLIHVAEFPNEEARIKDPTKATSPVEYLEEIGVLDERMVIAHGIHLSQHDQALLKQADAGVVYNPMANVKGATGIAPAWDMFRADMRVGLGTDGPMSSNQVDLWRTLSYAANMQRLKHSDRTIMIPEQVIEMATIGGAKALHMEDE | failed
GNLEEMNIDPDNATQTHPKLLLTQICMNAFKRGTDGMYATKKVIQADGESADQYYKWTRGSFGYYDNLRNVQKMGEEAERVNAPVYTALTKFFRAYYFYELTLRFGDIPYSQALKGEKEEIYTPEYDAQEDVFAGILQELREADEILANDASVIDGDIIYNGNSTQWRKLINSFRLKVLMTLSNHTTVGNINIASEFKNIATNSPLMNSLADNGQLVYLDQQGNRYPQFNAQWSGYYMDDTFIQRMRERRDPRLFIFSAQTNKGKTEGKPIDDFSSYEGGDPAAPYSDAIIKVSEGTISPINDRFRTDPIVEPTMLMGYAELQQILAEAVVRGWISGNAQTYYEKGIRASFSFYETHAKDYAGYLNENAVAQYLKEPLVDFTQASGTEEQIERIIMQKYLVTFYQGNWDSFYEQLRTGYPDFRRPAGTEIPKRWMYPQGEYDNNGTNVETAITRQFGAGNDKINQATWWQKKS | not failed
GPGSMSLKVNILGHEFSNPFMNAAGVLCTTEEDLRRMTESESGSLIGKSCTLAPRTGNPEPRYFGLPLGSINSMGLPNLGVDFYLSYAAQTHDYSRKPLFLSMSGLSVEESVEMVKKLAPITKEKGTILELNLSCPNVPGKPQVGYDFDTTRTYLQKVSEAYGLPFGVKMPPYFDIAHFDMAAAVLNDFPLVKFITCVNSIGNGLVIDPANETVVIKPKQGFGGLGGKYVLPTALANVNAFFRRCPDKLVFGCGGVYSGEEAFLHILAGASMVQVGTALHDEGPIIFARLNKELQEIMTNKGYKTLDEFRGRVKTMD | not failed
GPLQVSNARLLFPISMPEDEGVVRLVVNNTDESDLQVAVVSLPSFVSLDDRAFRLQAREPRELNLSLAVPRNMPPGMKDEPLVLEVTSPETGKKAVDSVMVSLPLVDNFPALTAAQTGVMELSTYLDMGQLDGETTKAAIEIRNVGAGPLRLHSVTTRNPALTAVPDRTEIKPGGSTLLRIAVDPQVMKAEGWQSIAADISIICNDPQAPLRRIKVKAEL | not failed
GPYATEVELREMVDIAQEHGIVEIEERRMIQSVFDLASTTVRQVMVPRPEMIWIESGKTAGQATALCVRSGHSRIPVIGENVDDIIGIVYLKDLVQKTYYATDGGKSVLVDEVMREATFVPDSKSLDALLQEMQEDHKHIAILVDEYGGVAGLISIEDILEEIVGEIADEYDAREVAPIEKIGDRTYRVVSRL | not failed
GQEYRALPGADTGRPDLDRSYALVYPAPRPKALLLLVPGLLGGSTNFALLAERLRAMAPGLEVWAWERRANGLEDRRGFLREDPVAYYRALALPDLTPLRAWGLEVHLKDLDLAVEAARARAPVVLAGHSLGAALAGLYALLHGEKLSGLVLLDGAPGVVPLAEEAFYEGADLPFGRLVGYRAFLRGEGSPAVELLGLGPKALALAEAEAFLAAKRPEEDLPFGPYRATREALALLRVDDDYSLFPVFSVSAGRAWAREGFSLLGLLQGRLVRTVRGPRAGPIAWRDTGEATDPRAFLRAFALPETGFSEWYFPYRLLLEVGGYPYVLRGLKPRALPYPVLALGAGRGLYPRAEDFRLGELFPGTEARAQVLPGLTHLDLLTEREGRTAGLLLRYLQDL | failed
GQSEDGLSVPKPLGIVEPWQMWLQRWVPGQPATELLITRPDLPEKIAALAHKIHSHSVPTTKTHTIATELQILGDRLREFSHQQPQWQTQIQHFIAQSEQLGEVLNKYPRPTTTIHRDFYPDQILVDGNHLWLVDLDLYCKGDPAVDLGNFIAHMTEYSLRTWG | failed
GRDYVLSANLSLGMNKMKVDKLNGTDNVIWDQNNRWKSSYNDYCLKVGDQVGLIYGFVYDGLYSMDEFYFDPTNNLQAVPWGSTAAENGTSKDAPIMDADGVEHPKTIINQISGDSNSGIATLPGKVKFKDLNGDGYITEDDRTVIGNTNPKVQGGFGLSGQWKGFDFAMNFNFMLDFDVNNATAYQLSSSESNKNKFYNVLSTFADKGWRYTRDGDGECLYKCYYIDGSLDMYRELNEGRTLWNPTDVTKKITHSYFIEDGSFLRCQDLTVGYTLPGNLTSKWGISKARFYVSASNLFIITGYSGYDPEVDIQTGLTCGMDYNRYPRSRSFVLGTNITF | failed
GRGTVTNEVRVAVEVPALPAAIASRLEVPAGAGGVYVERLRRLDGLPLSLDTSYLTVDVGRAVLAGDLRDRDVFGLIEEAAGARLGRAEVAVHAVNADPGTARLLGIGPGAAVFALERLTRLADGRPVDAESIRIRADRMA | failed
GSEEEEIPFRCFICRQAFQNPVVTKCRHYFCESCALEHFRATPRCYICDQPTGGIFNPAKELMAKLQK | not failed
GSGKNLIMIQVEALQGFVVNKSINGKEITPNLNKWINKSLYFDNYFYQVAQGNTSDAEFMSLNSLYPAQSGAAYYTYAGNTFNSIPKDLGDKGYYTAALHGYNEGFWNRNVMYKSEKFDDFYGQTSYKNDEVVGMGLSDESFLNQSLAKMKTFKQPYFSFLITLSSHYPFNDTAGYEKYTMNKLDVGEYKDTLLGNYFEGIHYTDEQLGKFLDKLDKEGLTKNSIIVLYGDHFAIPKENINQLYSFEGIKDPTDLTWYEYQKVPMFIHFPDDEHKGVNHTYSGQMDIYPTIANLYNISNNYMFGEDILNVKDGDSTNVTFRNGSFTDGK | failed
GSSGSSGMGNSKSGALSKEILEELQLNTKFSEEELCSWYQSFLKDCPTGRITQQQFQSIYAKFFPDTDPKAYAQHVFRSFDSNLDGTLDFKEYVIALHMTTAGKTNQKLEWAFSLYDVDGNGTISKNEVLEIVMAIFKMITPEDVKLLPDDENTPEKRAEKIWKYFGKNDDDKLTEKEFIEGTLANKEILRLIQFEPQKVKEKMKNA | not failed
GSSILDRAVIEHNLLSASKLYNNITFEELGALLEIPAAKAEKIASQMITEGRMNGFIDQIDGIVHFETREA | not failed
